{
  "source": "paper PMC12187869",
  "about": "“Transport of the uremic toxin symmetric dimethylarginine (SDMA) by renal transport proteins” (Amino Acids, 2025)",
  "system": "T1, CN=C(NC)NCCC[C@H](N)C(=O)O",
  "T1 construct": "HEK293 cells stably expressing human CAT1",
  "assay": "[3H]SDMA uptake kinetics (Km) and efflux in HEK-CAT1 cells",
  "format": "cell-based, Homo sapiens",
  "data": [
    {"substance": "CAT1 (Homo sapiens)", "values": [
      {"measurement": "Km", "result": 246, "unit": "µM"}
    ]}
  ]
}
